In US20030232387A1 one finds % Control Staining data, which are given here for 1 molecule.

This assay addresses mutant αEβ7 integrin, αE ΔE163-E180, on transfected K562 cells (human) (UniProt P38570). In words: flow cytometry on K562 cells expressing mutant αEβ7.

mutant αEβ7 integrin, αE ΔE163-E180, on transfected K562 cells (human), sequence (P38570 other isoform, or with tags, fused parts or gaps mutant, chain 1 of 2): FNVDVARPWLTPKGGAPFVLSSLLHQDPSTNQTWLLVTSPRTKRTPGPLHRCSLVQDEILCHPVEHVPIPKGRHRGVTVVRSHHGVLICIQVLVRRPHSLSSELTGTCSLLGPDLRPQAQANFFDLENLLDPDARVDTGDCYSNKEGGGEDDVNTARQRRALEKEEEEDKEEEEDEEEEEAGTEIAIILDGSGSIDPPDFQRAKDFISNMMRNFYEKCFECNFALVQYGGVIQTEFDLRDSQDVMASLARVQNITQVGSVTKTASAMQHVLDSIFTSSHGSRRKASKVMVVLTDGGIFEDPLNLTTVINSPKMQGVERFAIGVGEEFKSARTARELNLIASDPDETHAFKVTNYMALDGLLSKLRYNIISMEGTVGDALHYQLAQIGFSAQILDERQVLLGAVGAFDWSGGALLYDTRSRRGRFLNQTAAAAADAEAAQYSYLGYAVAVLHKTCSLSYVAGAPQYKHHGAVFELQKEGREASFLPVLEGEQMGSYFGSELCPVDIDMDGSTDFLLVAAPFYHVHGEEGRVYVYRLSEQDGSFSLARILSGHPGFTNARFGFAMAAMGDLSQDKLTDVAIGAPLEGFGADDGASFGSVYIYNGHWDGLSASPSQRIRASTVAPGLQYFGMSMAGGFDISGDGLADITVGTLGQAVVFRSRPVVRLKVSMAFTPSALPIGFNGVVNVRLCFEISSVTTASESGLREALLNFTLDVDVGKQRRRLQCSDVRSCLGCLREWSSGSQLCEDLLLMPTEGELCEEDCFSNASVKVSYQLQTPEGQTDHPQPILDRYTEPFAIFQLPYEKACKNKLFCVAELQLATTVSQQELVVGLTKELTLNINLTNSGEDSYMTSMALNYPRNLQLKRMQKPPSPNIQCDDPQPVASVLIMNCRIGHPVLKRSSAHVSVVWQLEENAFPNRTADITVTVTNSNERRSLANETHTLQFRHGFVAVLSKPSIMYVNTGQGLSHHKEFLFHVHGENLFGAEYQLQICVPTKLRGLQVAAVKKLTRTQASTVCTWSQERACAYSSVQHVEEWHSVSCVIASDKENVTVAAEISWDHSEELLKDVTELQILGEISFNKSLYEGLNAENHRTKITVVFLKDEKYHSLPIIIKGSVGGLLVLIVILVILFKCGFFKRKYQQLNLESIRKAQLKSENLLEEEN
mutant αEβ7 integrin, αE ΔE163-E180, on transfected K562 cells (human), sequence (chain, as listed by the source mutant, chain 2 of 2): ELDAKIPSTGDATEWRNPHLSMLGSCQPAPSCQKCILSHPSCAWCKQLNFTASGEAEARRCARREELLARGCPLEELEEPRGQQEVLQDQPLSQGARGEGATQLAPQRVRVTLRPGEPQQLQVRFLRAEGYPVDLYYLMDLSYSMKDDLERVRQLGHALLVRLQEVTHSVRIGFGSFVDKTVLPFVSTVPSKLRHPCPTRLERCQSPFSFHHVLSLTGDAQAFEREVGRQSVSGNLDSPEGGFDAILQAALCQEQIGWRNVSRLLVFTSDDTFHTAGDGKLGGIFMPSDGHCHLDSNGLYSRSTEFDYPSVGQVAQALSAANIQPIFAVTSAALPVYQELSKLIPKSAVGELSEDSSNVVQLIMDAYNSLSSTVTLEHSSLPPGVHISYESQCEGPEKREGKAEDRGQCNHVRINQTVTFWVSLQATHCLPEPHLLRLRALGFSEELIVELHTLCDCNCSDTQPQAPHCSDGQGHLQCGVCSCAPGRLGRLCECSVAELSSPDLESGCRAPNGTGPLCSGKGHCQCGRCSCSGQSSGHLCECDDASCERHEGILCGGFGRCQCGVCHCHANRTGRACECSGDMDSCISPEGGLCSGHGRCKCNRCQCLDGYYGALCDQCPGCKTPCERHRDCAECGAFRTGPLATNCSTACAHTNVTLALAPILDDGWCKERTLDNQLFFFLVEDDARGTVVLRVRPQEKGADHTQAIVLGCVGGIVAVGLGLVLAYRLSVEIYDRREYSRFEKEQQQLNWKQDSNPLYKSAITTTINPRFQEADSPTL

B1: mAb 5E4 (antibody, V domains shown)
VH: EVQLVESGGGLVQPGGSLRLSCAASGFTFSNFWMSWVRQAPGKGLEWMANIKQDGSEKYYVDSVKGRFTISRDNAKSSLFLQMNSLRVDDTAVYFCAGDYYDSGSFYWGQGTLVTVSS
VL: EIVLTQSPATLSLSPGERATLSCRASQSVRSNLAWYQQKPGQAPRLLIYDASNRAIGIPARFSGSGSGTDFTLTISSLEPEDFVVYYCQQRSNWPPWTFGQGTKVEIK
Molecule B1 displayed a % Control Staining of 25%.
